Consider one substance from US20020147326A1, “Hexameric fusion proteins and uses therefor” (SmithKline Beecham Corporation, priority 1996, published 2002).

Entries after “also recorded” stand apart in the source; their conditions may differ.

In assay [1] the target is T1, biotinylated CD80-Igαtp binding to immobilized CD28-Ig (Homo sapiens, UniProt P10747).
T1 construct: native leader and extracellular domain peptide of CD28 and CD80 were grafted onto a human IgG1 heavy chain Fc region; human IgG1 Fc (hinge/CH2/CH3); made in house; host or cells: CHO cells
The experiment in a line: Competition ELISA of biotinylated CD80-Igαtp binding to immobilized CD28-Ig. The note with it: competitor added simultaneously; wells coated with CD28-Ig. On the procedure: The wells of 96 well microtiter plates (Immunlon 4, Dynatech Laboratories) were coated with CD28-Ig (1, 2, or4 μg/ml) in 100 μl/well of 0.1 M sodium bicarbonate, pH 9.4 and incubated overnite @4° C. The wells were washed with PBS (phosphate buffered saline) and blocked with 0.5% gelatin in PBS for 1 hour. Following an additional PBS wash, biotinylated CD80-Igαtp was serially diluted in PBS containing 1 mg/ml BSA, 0.05% Tween directly in the wells in a final volume of 0.1 ml and incubated for 1 hour. The wells were washed with PBS and bound CD80-Igαtp protein was measured by the addition of 0.1 ml of strepavidin-HRP (streptavidin conjugated with horseradish peroxidase (Southern Biotech)) at a 1:2000 dilution for 1 hour, followed by washing and color development with 100 μl ABTS substrate (Kierkegaard and Perry Laboratories Inc., Maryland) and measurement of absorbance at 405 nm. In some cases the color reactions were arrested by addition of 100 μl of 1% SDS prior to measurement of absorbance. In this figure, “CD28-Fc”, “CTLA4-Fc”, and “B7-FcA” denote CD28-Ig, CTLA4-Ig, and CD80-Igαtp, respectively.

Assay [2] concerns murine T-cell hybridoma cell lines expressing human CD28 (PCD28.1.s2.1, DCL27CD28wt.s2). The experiment in a line: IL-2 production by CD28 T-cell hybridomas (CTLL-2 bioassay). Particulars: addition of CTLA4-Ig. In kind it is cell-based. From the text:
The CD80- and CD86-Igαtp proteins were compared to the corresponding CD80 and CD86-Ig proteins to determine their ability to stimulate cells expressing human CD28 using two murine T-cell hybridoma cell lines expressing human CD28, PCD28.1.s2.1 and DCL27CD28wt.s2. The PCD28.1.s2.1 cell line was described in Example 1, part 3. The DCL27CD28wt.s2 cell line was created by transfection of the DC27 cell line [F. Pages et al., Nature, 369:327-329 (1994); F. Pages et al., J. Biol. Chem., 271(16):9403-9409 (1996)] with the same CD28 expression vector used for the PCD28.1.s2.1 cells [D. Couez et al., Molecular Immunology, 31:47-57 (1994)]. These cell lines were examined for their ability to produce IL-2 in response to activation with CD80- and CD86-Ig in comparison with the corresponding Igαtp fusion proteins. 96-well plates were coated with or without a CD3 antibody together with the CD80 and CD86 fusion proteins. This was accomplished by first incubating the plates with a previously determined suboptimal concentration of hamster […] CD3 antibody (MAb 145-2C11, Boerhinger-Mannheim Biochemicals) for two hours at room temperature (RT) or with just buffer alone, washing the plates with PBS, adding goat anti-human Ig heavy chain (GAH-IgHc, Sigma Chemical Co.) for an additional two hours at RT, washing again and coating with different concentrations of the CD80 or CD86 fusion protein for 16-18 hours at 4° C., washing again, and finally blocking for 30 min. with 0.2% BSA-PBS. T cells (1×10^5/well) were added in 150 μl medium into duplicate wells. For comparison, the soluble fusion proteins and the 248.23.2 CD28 MAb (IgM) [A. Morretta, University of Genova, Italy] were added to non-coated wells. T cells were incubated in the wells for 24 hours at 37° C., and supernatants were collected and evaluated for IL-2 levels in a standard CTLL-2 bioassay [S. M. Gillis et al., J. Immunol., 120:2027 (1978)]. Briefly, 1×10^4 IL-2 dependent CTLL-2 cells (ATCC)/well in 75 μl medium were added to an equal volume of test supernatant and incubated for 24 hours at 37° C. The cells were pulsed with 10 μl of 5 mg/ml MTT (Sigma Chemical Co.) for 4 hours, and lysed with […] 10% SDS/0.01N HCl solution for 14-16 hours. OD570 readings were converted into ng/ml of IL-2 based on a standard curve generated by treating cells with known concentrations of IL-2.
IL-2 promoter activity and IL-2 levels were measured similarly to that described in parts A and B above, except that proliferation of the reader CTLL-2 cells was measured by ^3H-thymidine incorporation.

For “CTLA4-Ig: binding protein/Fc construct for human CTLA4 with human IgG1 Fc”, the “inhibition of biotinylated CD80-Igαtp binding to immobilized CD28-Ig” value in assay [1] is recorded as “inhibited; also recorded: blocked the binding sites on CD80-Igαtp”. The “blockade of the response to CD80- and CD86-Igαtp” value in assay [2] is “complete blockade”.
